Assay results published in patent US11906524B2, “Urea biosensors and uses thereof” (Duke University, priority 2015, dated 2024).
Where a chain is given by its changes, count along the chain named. Numbers in names are those of the source.

B1: bsUBP3 T77C: bsUBP3 77C cysteine mutant (SEQ ID NO: 44), tested as Acrylodan conjugate (conjugate)
chain: MKVGILHSLSGTMAISEVSVHDAELIAIQEINQKGGVLGKKLEPVVEDGASDWPTYAEKMRKLLQQDKVAAVFGGWCSASRKAMLPVVEQNNGLLFYPVQYEGMETSPNIFYTGATTNQQIVPAVDWLLKNKGKKFFLIGSDYVFPRTANKIIKAQVKAGGGEIAGEEYTPLGHTNYSTLVSKIKEKQPDVIFNTLNGDSNVAFFKQLKDAGISADDMPVMSASVAEEEIRGIGPDVLKGHYAVWNYFQTTNTSENQTFVKNYKKMNGDSRVTSDPIEAGYNAVYLWAAAVEKAKSFDVDKVKKAADGISFKAPGGTVKIDGDTQHLYKTVRIGQITGDGQFKEVWNSGEPVKPDPYLKTYDWAKGLSKGGSHHHHHH
modifications: Acrylodan conjugate; bsUBP3_77C (77C substitution mutant with signal peptide replaced with M and a GGSHHHHHH at C-terminus)
B2: bsUBP3 L172C: bsUBP3 172C cysteine mutant (SEQ ID NO: 48), tested as Acrylodan conjugate (conjugate)
chain: B1 chain with C77T, L172C
modifications: Acrylodan conjugate; bsUBP3_172C (172C substitution mutant with signal peptide replaced with M and a GGSHHHHHH at C-terminus)
B3: bsUBP3 A79C: bsUBP3 79C cysteine mutant (SEQ ID NO: 46), tested as Acrylodan conjugate (conjugate)
chain: B1 chain with C77T, A79C
modifications: Acrylodan conjugate; bsUBP3_79C (79C substitution mutant with signal peptide replaced with M and a GGSHHHHHH at C-terminus)
B4: csUBP7 S65C: csUBP7 65C cysteine mutant (SEQ ID NO: 26), tested as Acrylodan and Badan conjugates (conjugate)
chain: MSSSESEKEKSEETIKVGILHSLSGTMSISEVSLKDAELMAIEEINNNGGVLGKKLEPIVEDGACDWPTFAEKAKKLLQKDKVAVIFGAWTSASRKAVLPVVEENNGLLFYPVQYEGLESSPNIFYMGAAPNQQIVPAVKWLFDNGKKRFYLLGSDYVFPRTANKIIKAYLKYLGGVVVGEEYTPLGHTDYSSVINKIKAAKPDVVFNTLNGDSNVAFFKQLKDAGIDANTLPVMSVSIAEEEIKGIGPEYLKGHLVTWNYFQSVDTPENKEFVEKYKKKYGEDRVTDDPIEAAYIGVYLWAKAVEKAGSTDVDKVREAAKGIEFNAPEGPVKIDGDNQHLYKTVRIGEILENGQIRELWKTNKPVKPDPYLKGYEWAQGLSEQGGSHHHHHH
modifications: Acrylodan or Badan conjugate; csUBP7_65C (65C substitution mutant with signal peptide replaced with M and a GGSHHHHHH at C-terminus, and also comprising a C89A substitution)
B5: csUBP7 S238C: csUBP7 238C cysteine mutant (SEQ ID NO: 42), tested as Acrylodan and Badan conjugates (conjugate)
chain: B4 chain with C65S, S238C
modifications: Acrylodan or Badan conjugate; csUBP7_238C (238C substitution mutant with signal peptide replaced with M and a GGSHHHHHH at C-terminus, and also comprising a C89A substitution)
B6: csUBP7 S92C: csUBP7 92C cysteine mutant (SEQ ID NO: 30), tested as Acrylodan and Badan conjugates (conjugate)
chain: B4 chain with C65S, S92C
modifications: Acrylodan or Badan conjugate; csUBP7_92C (92C substitution mutant with signal peptide replaced with M and a GGSHHHHHH at C-terminus, and also comprising a C89A substitution)
B7: csUBP7 F159C: csUBP7 159C cysteine mutant (SEQ ID NO: 39), tested as Acrylodan and Badan conjugates (conjugate)
chain: B4 chain with C65S, F159C
modifications: Acrylodan or Badan conjugate; csUBP7_159C (159C substitution mutant with signal peptide replaced with M and a GGSHHHHHH at C-terminus, and also comprising a C89A substitution)
B8: csUBP7 V158C: csUBP7 158C cysteine mutant (SEQ ID NO: 38), tested as Acrylodan and Badan conjugates (conjugate)
chain: B4 chain with C65S, V158C
modifications: Acrylodan or Badan conjugate; csUBP7_158C (158C substitution mutant with signal peptide replaced with M and a GGSHHHHHH at C-terminus, and also comprising a C89A substitution)
B9: csUBP7 A93C: csUBP7 93C cysteine mutant (SEQ ID NO: 31), tested as Acrylodan and Badan conjugates (conjugate)
chain: B4 chain with C65S, A93C
modifications: Acrylodan or Badan conjugate; csUBP7_93C (93C substitution mutant with signal peptide replaced with M and a GGSHHHHHH at C-terminus, and also comprising a C89A substitution)
B10: csUBP7 Y111C: csUBP7 111C cysteine mutant (SEQ ID NO: 33), tested as Acrylodan and Badan conjugates (conjugate)
chain: B4 chain with C65S, Y111C
modifications: Acrylodan or Badan conjugate; csUBP7_111C (111C substitution mutant with signal peptide replaced with M and a GGSHHHHHH at C-terminus, and also comprising a C89A substitution)
B11: csUBP7 Y115C: csUBP7 115C cysteine mutant (SEQ ID NO: 35), tested as Acrylodan and Badan conjugates (conjugate)
chain: B4 chain with C65S, Y115C
modifications: Acrylodan or Badan conjugate; csUBP7_115C (115C substitution mutant with signal peptide replaced with M and a GGSHHHHHH at C-terminus, and also comprising a C89A substitution)
B12: csUBP7 Q114C: csUBP7 114C cysteine mutant (SEQ ID NO: 34), tested as Acrylodan and Badan conjugates (conjugate)
chain: B4 chain with C65S, Q114C
modifications: Acrylodan or Badan conjugate; csUBP7_114C (114C substitution mutant with signal peptide replaced with M and a GGSHHHHHH at C-terminus, and also comprising a C89A substitution)

Experiment: Temperature- and urea-dependent fluorescence landscapes of fluorescent conjugates (Roche LightCycler)
Format: binding
Set-up: key: y, yes; n, no
Details: Acrylodan conjugate; fluorescent response to urea
Protocol: We constructed 20 single cysteine mutants in csUBP7, exploring 7 endosteric, 12 peristeric, and 1 allosteric position (FIG. 9). At each position we attached the Prodan-derived fluorophores Acrylodan and Badan, which differ by one methylene group in their thiol-reactive linker. The fluorescent responses of these conjugates was determined initially as a function of urea concentration and temperature (FIG. 10). […] The ligand dependence of the emission spectra shapes was determined for these conjugates (Table 8).
Determination of temperature- and ligand-dependent fluorescence landscapes. […] Urea concentrations were varied from 0-4.8 M in 20 mM KCl, 20 mM MOPS (pH 7.4). […] Temperatures were advanced in 1K steps.
Ratiometric analysis of urea binding. […] 2
For a single urea-binding site, the fractional saturation is given by
[formula] where [L] is the ligand (urea) concentration and Kd the dissociation constant, ^trueKd for ytrue.
To obtain the temperature dependence of the binding reaction, the Kd values of all the individually determined isotherms were fit the Gibbs-Hemholtz equation (Layton and Hellinga, 2010, Biochemistry, 49, 10831-41):
[formula] where ΔGb^•(T) is the standard free energy of binding at 1 M ligand at temperature T,
[formula] Δ^refHb^• and Δ^refSb^• the molar enthalpy and entropy of binding, respectively, at the reference temperature, Tref, and ΔCp,b the heat capacity of the binding reaction.

Molecule	Response
B1	y
B2	y
B3	y
B4	n
B5	n
B6	n
B7	n
B8	n
B9	y
B10	n
B11	n
B12	n

Same assay, conditions: Badan conjugate; fluorescent response to urea

Molecule	Response
B4	y
B5	n
B6	n
B7	n
B8	n
B9	n
B10	n
B11	n
B12	n
